Source: patent US20180030151A1 (MOGAM INSTITUTE FOR BIOMEDICAL RESEARCH, published 2018)
Residue numbers refer to the chain shown, from its start. Where two headings read alike, the source gives them in different places.

How the values were obtained:
[1] = target: T1, recombinant human TFPI (tissue factor pathway inhibitor) (human, UniProt P10646 29-304); assay: cell-based or functional assay
[2] = target: T1, recombinant human TFPI (tissue factor …); assay: cell-based or functional assay; remark: listed apart in the source
[3] = target: T1, recombinant human TFPI (tissue factor …); assay: cell-based or functional assay; remark: listed apart in the source
[4] = target: T1, recombinant human TFPI (tissue factor …); assay: cell-based or functional assay; remark: listed apart in the source
[5] = target: T1, recombinant human TFPI (tissue factor …); assay: cell-based or functional assay; remark: listed apart in the source
[6] = target: T1, recombinant human TFPI (tissue factor …); assay: yeast-display scFv, FACS with biotinylated TFPI
Procedure: The finally amplified single colonies were collected from the yeast display library, and then cultured in SD medium at 30° C. at 200 rpm for 12 hours. Then, the medium was replaced with SG medium, and the cells were cultured at 25° C. at 200 rpm for 12 hours or more, thereby expressing the antibody on the yeast surface. Next, the yeast cells recovered by centrifugation were washed with PBSF (1% BSA containing PBS) buffer, resuspended in 50 μl of PBSF buffer, and then incubated with a biotin-conjugated recombinant human TFPI protein and anti-c-myc mouse antibody (CAT. No. M4439, Sigma) at room temperature for 30 minutes. The incubated yeast cells were washed with PBSF, resuspended in 50 μl of PBSF buffer, and then incubated with FITC-conjugated anti-mouse antibody (CAT. No. F0257, Sigma) and PE-conjugated streptavidin on ice under a light-shielded condition for 15 minutes. Next, the cells were washed with PBSF buffer, resuspended in 500 μl of PBSF buffer, and then clones showing high values in the FITC and PE wavelength ranges were selected by FACS, thereby obtaining individual clones.

[7] = target: T1, recombinant human TFPI (tissue factor …); assay: cell-based or functional assay; remark: listed apart in the source
[8] = target: T1, recombinant human TFPI (tissue factor …); assay: cell-based or functional assay; remark: listed apart in the source
[9] = target: T1, recombinant human TFPI (tissue factor …); assay: cell-based or functional assay; remark: listed apart in the source
[10] = target: T1, recombinant human TFPI (tissue factor …); assay: SPR, Biacore T-200; TFPI immobilised on CM5 chip, IgG as analyte
Procedure: 10 mM of glycine-HCl (pH 1.5) was run at a flow rate of 30 μL/min for 30 seconds, thereby inducing the dissociation of the antibody associated with the TFPI. The affinity in terms of kinetic rate constants (Kₒₙ and Koff) and equilibrium dissociation constant

B1: clone 8 (antibody, V domains shown)
VH: EVQLVESGGGLVKPGGSLRLSCAASGFTFSSYAMNWVRQAPGKGLEWVSTITTGGSYTYYADSVEGRFTISRDNAKNSLYLQMNSLRAEDTAVYYCARQDGNFLMDYWGQGTLVTVSS
VL: DVVMTQTPLSLPVTLGQPASISCKSSPSLLDVDGKTYLNWLQQRPGQSPKRLIYLVSKLDSGVPDRFTGSGSGTDFTLKISRVEAEDVGVYYCWQGTHFPFTFGQGTKVEIKR
[1]
  FXa assay % of FXa alone, 2.5 nM Ab, 10 nM TFPI: 7.1%
  FXa assay % of FXa alone, 5 nM Ab, 10 nM TFPI: 33.8%
  FXa assay OD, 2.5 nM Ab, 10 nM TFPI: 0.054
  FXa assay OD, 5 nM Ab, 10 nM TFPI: 0.258
  FXa assay OD, 10 nM Ab, 10 nM TFPI: 0.527
  FXa assay OD, 20 nM Ab, 10 nM TFPI: 0.61
[2]
  FXa assay % of FXa alone, 2.5 nM Ab, 10 nM TFPI: 7.4%
  FXa assay % of FXa alone, 5 nM Ab, 10 nM TFPI: 31%
  FXa assay % of FXa alone, 10 nM Ab, 10 nM TFPI: 70.5%
  FXa assay % of FXa alone, 20 nM Ab, 10 nM TFPI: 77.5%
  FXa assay OD, 2.5 nM Ab, 10 nM TFPI: 0.0615
  FXa assay OD, 5 nM Ab, 10 nM TFPI: 0.256
  FXa assay OD, 10 nM Ab, 10 nM TFPI: 0.583
  FXa assay OD, 20 nM Ab, 10 nM TFPI: 0.64
[3]
  A405, TF/FVIIa/FX complex assay (FX 5 nM), Ab 1.56 nM: 0.041
  A405, TF/FVIIa/FX complex assay (FX 5 nM), Ab 3.13 nM: 0.05
  A405, TF/FVIIa/FX complex assay (FX 5 nM), Ab 6.25 nM: 0.052
  A405, TF/FVIIa/FX complex assay (FX 5 nM), Ab 12.5 nM: 0.088
  A405, TF/FVIIa/FX complex assay (FX 5 nM), Ab 25 nM: 0.391
  A405, TF/FVIIa/FX complex assay (FX 5 nM), Ab 50 nM: 0.673
  A405, TF/FVIIa/FX complex assay (FX 5 nM), Ab 100 nM: 0.834
[4]
  % of Normalized, TF/FVIIa/FX complex assay (FX 5 nM), Ab 1.56 nM: 5.1%
  % of Normalized, TF/FVIIa/FX complex assay (FX 5 nM), Ab 3.13 nM: 6.1%
  % of Normalized, TF/FVIIa/FX complex assay (FX 5 nM), Ab 6.25 nM: 6.4%
  % of Normalized, TF/FVIIa/FX complex assay (FX 5 nM), Ab 12.5 nM: 10.8%
  % of Normalized, TF/FVIIa/FX complex assay (FX 5 nM), Ab 25 nM: 48.3%
  % of Normalized, TF/FVIIa/FX complex assay (FX 5 nM), Ab 50 nM: 83.2%
  % of Normalized, TF/FVIIa/FX complex assay (FX 5 nM), Ab 100 nM: 103%
[5]
  effect of inhibiting TFPI, FXa activity assay, Ab 10 nM: ~69%
  effect of inhibiting TFPI, FXa activity assay, Ab 20 nM: ~80%

B2: clone 4278 (antibody, V domains shown)
VH: EVQLVESGGGLVKPGGSLRLSCAASGFTFSKYAMNWFRQAPGKGLEWVSTITLGGSYTYYADSVDGRFTISRDNAKNSLYLQMNSLRAEDTAVYYCARQYLDGNFLMDYWGQGTLVTVSS
VL: B1 VL with P27Q, V32I
notes: scFv on yeast at selection; human IgG4/kappa IgG as purified
[6]
  binding result: binds

B3: clone 15 (antibody, V domains shown)
VH: B2 VH with L53T, D65E, Y100H, L101P, D102Y
VL: B1 VL with V32S, T97F, H98Y
notes: human IgG4/kappa IgG as purified
[6]
  binding result: binds

B4: clone 1208 (antibody, V domains shown)
VH: B1 VH with Y57H, N102H
VL: B1 VL with P27Q, H98Y, F99L
notes: as for B2
[6]
  binding result: binds

B5: clone 13 (antibody, V domains shown)
VH: B1 VH with S49G, Y57H
VL: B1 VL with V32I
[2]
  FXa assay % of FXa alone, 2.5 nM Ab, 10 nM TFPI: 7.8%
  FXa assay % of FXa alone, 5 nM Ab, 10 nM TFPI: 44.8%
  FXa assay OD, 2.5 nM Ab, 10 nM TFPI: 0.0645
  FXa assay OD, 5 nM Ab, 10 nM TFPI: 0.37
  FXa assay OD, 10 nM Ab, 10 nM TFPI: 0.624
  FXa assay OD, 20 nM Ab, 10 nM TFPI: 0.706
[7]
  A405, TF/FVIIa/FX complex assay, Ab 1.56 nM: 0.046
  A405, TF/FVIIa/FX complex assay, Ab 3.13 nM: 0.054
  A405, TF/FVIIa/FX complex assay, Ab 6.25 nM: 0.075
  A405, TF/FVIIa/FX complex assay, Ab 12.5 nM: 0.101
  A405, TF/FVIIa/FX complex assay, Ab 25 nM: 0.528
  A405, TF/FVIIa/FX complex assay, Ab 50 nM: 0.818
  A405, TF/FVIIa/FX complex assay, Ab 100 nM: 0.859
[8]
  % of Normalized, TF/FVIIa/FX complex assay, Ab 1.56 nM: 5.4%
  % of Normalized, TF/FVIIa/FX complex assay, Ab 3.13 nM: 6.4%
  % of Normalized, TF/FVIIa/FX complex assay, Ab 6.25 nM: 8.8%
  % of Normalized, TF/FVIIa/FX complex assay, Ab 12.5 nM: 11.9%
  % of Normalized, TF/FVIIa/FX complex assay, Ab 25 nM: 62.2%
  % of Normalized, TF/FVIIa/FX complex assay, Ab 50 nM: 96.5%
  % of Normalized, TF/FVIIa/FX complex assay, Ab 100 nM: 101%
[5]
  effect of inhibiting TFPI, FXa activity assay, Ab 10 nM: ~76%
  effect of inhibiting TFPI, FXa activity assay, Ab 20 nM: ~85%

B6: clone 21 (antibody, V domains shown)
VH: B1 VH with T53K, E65D
VL: B1 VL with V32S
[9]
  FXa assay % of FXa alone, 2.5 nM Ab, 10 nM TFPI: 5.9%
  FXa assay % of FXa alone, 5 nM Ab, 10 nM TFPI: 6%
  FXa assay % of FXa alone, 10 nM Ab, 10 nM TFPI: 6.5%
  FXa assay % of FXa alone, 20 nM Ab, 10 nM TFPI: 7.2%

B7: clone 4011 (antibody, V domains shown)
VH: B1 VH with S30Y, Y57H
VL: B1 VL with P27Q, F99L
notes: as for B2
[6]
  binding result: binds

B8: clone 23 (antibody, V domains shown)
VH: B1 VH with S31H, N102H
VL: B1 VL with V32I, F99L
[9]
  FXa assay % of FXa alone, 2.5 nM Ab, 10 nM TFPI: 6.9%
  FXa assay % of FXa alone, 5 nM Ab, 10 nM TFPI: 7.4%
  FXa assay % of FXa alone, 10 nM Ab, 10 nM TFPI: 10.4%
  FXa assay % of FXa alone, 20 nM Ab, 10 nM TFPI: 62.5%
  FXa assay OD, 2.5 nM Ab, 10 nM TFPI: 0.082
  FXa assay OD, 10 nM Ab, 10 nM TFPI: 0.124
  FXa assay OD, 20 nM Ab, 10 nM TFPI: 0.745

B9: clone 4034 (antibody, V domains shown)
VH: B1 VH with Y57H, N102Y
VL: B1 VL with P27Q, V32I
notes: as for B2
[6]
  binding result: binds

B10: clone 1232 (antibody, V domains shown)
VH: B1 VH with E65D, N102H
VL: B1 VL with P27Q
notes: as for B2
[6]
  binding result: binds

B11: clone 1248 (antibody, V domains shown)
VH: B1 VH with Y57H, E65D, N102H
VL: B1 VL with P27Q, V32I
notes: as for B2
[6]
  binding result: binds

B12: clone 16 (antibody, V domains shown)
VH: B1 VH with S31H, N35T, Y57H
VL: B1 VL with V32I
[9]
  FXa assay % of FXa alone, 2.5 nM Ab, 10 nM TFPI: 7.3%
  FXa assay % of FXa alone, 5 nM Ab, 10 nM TFPI: 10.2%
  FXa assay OD, 2.5 nM Ab, 10 nM TFPI: 0.0865
  FXa assay OD, 5 nM Ab, 10 nM TFPI: 0.122
  FXa assay OD, 10 nM Ab, 10 nM TFPI: 0.405
  FXa assay OD, 20 nM Ab, 10 nM TFPI: 0.651
[5]
  effect of inhibiting TFPI, FXa activity assay, Ab 10 nM: ~34%
  effect of inhibiting TFPI, FXa activity assay, Ab 20 nM: ~55%

B13: clone 14 (antibody, V domains shown)
VH: B2 VH
VL: B1 VL with V32S, H98Y
notes: as for B3
[6]
  binding result: binds

B14: clone 1243 (antibody, V domains shown)
VH: B1 VH with Y57H, E65H, N102H
VL: B1 VL with P27Q, V32I
notes: as for B2
[6]
  binding result: binds

B15: clone 1223 (antibody, V domains shown)
VH: B1 VH with N102H
VL: B1 VL with P27Q, V32I
notes: as for B2
[6]
  binding result: binds

B16: clone 4041 (antibody, V domains shown)
VH: B1 VH with N35S, Y57H, N102Y
VL: B1 VL with P27Q
notes: as for B2
[6]
  binding result: binds

B17: clone T308 (antibody, human IgG4, V domains shown)
VH: EVKLVESGGGLVKPGGSLKLSCAASGFTFSNYPMSWVRQTPEKRLEWVATISNSGSYTYYPDSVKGRFTISRDNAKNTLYLQMNSLRSEDTAMYYCARQVYGNYEDFDYWGQGTTLTVSS
VL: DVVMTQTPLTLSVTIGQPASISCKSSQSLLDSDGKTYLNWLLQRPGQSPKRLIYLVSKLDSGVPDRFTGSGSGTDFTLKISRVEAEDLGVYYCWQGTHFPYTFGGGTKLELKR
[10]
  Kd: 9.4 pM
[5]
  effect of inhibiting TFPI, FXa activity assay, Ab 10 nM: 89%
